{"source": "patent US20250221941A1", "about": "“NEPHRON PROGENITOR EXOSOMES” (VANDERBILT UNIVERSITY, priority 2021, published 2025)", "tested_on": "HK-2 cells", "experiment": "Sepsis-associated AKI model: cell-free hemoglobin-treated HK-2 cells, MTT, LDH, CC3, Ki-67, MDA", "format": "cell-based", "procedure": "Immortalized human cortical and proximal tubular epithelial (HK-2) cells were cultured in DMEM-F-12 with FBS [10% (wt/vol)] (Life Technologies, Carlsbad, CA), Insulin-Transferrin-Selenium (ITS) (Corning, Corning, NY), hydrocortisone (0.1 μM), and 1% Penicillin/Streptomycin. […] To induce the sepsis-associated AKI model, cells at confluence were exposed to 1 mg/ml purified cell-free hemoglobin (CFH) for 48 h. For all experiments, we used CFH purified from normal human blood by high pressure liquid chromatography (Pishchany, G., et al. J Vis Exp. 2013 Feb. 7 (72): 50072). After 48 h, the control or treated cells were harvested for immunostaining or assays. In both models, culture media was replaced after 48 h. For iNP-EV treatment, 10 μg of EVs was added to cells for the next 24 h.\nThe organoids were washed with PBS and then treated with MTT (3-(4,5-dimethylthiazol-2-yl)-2,5-diphenyltetrazolium bromide) reagent (Sigma-Aldrich) (1 mg/ml) for at least 60 min, leading to the purple formazan formation in living cells. The reagents were then removed and isopropanol was added to dissolve the insoluble formazan. The absorbance of the colored solution was measured using a microplate reader at 560 nm and 690 nm. Background absorbance at 690 nm was subtracted from absorbance at 560 nm and the O.D. values were plotted to measure cell viability.\nLDH release from the cells was evaluated using CyQUANT™ LDH Cytotoxicity Assay Kit. Briefly, cell culture medium was collected for other purposes at 48 h after the treatment. The cells were treated with 10% Triton X-100 and incubated for 15 min before to obtain the maximum LDH release from the sample. Cell culture media was collected and 50 μl of each sample was transferred into a 96-well opaque-walled, non-transparent assay plate. The LDH detection reagent was prepared by combining the LDH detection enzyme mix and reductase substrate. Then 50 μl of detection reagent was added to each well. The wells were incubated for 60 min at room temperature. […] was recorded on a plate reader at 490 nm and the corresponding O.D. was plotted to quantify cell death.", "key": {"[1]": {"conditions": "HK-2, 1 mg/ml CFH 48 h vs control"}}, "data": [{"substance": "CFH: cell-free hemoglobin purified from normal human blood by high pressure liquid chromatography; induces sepsis-associated AKI model", "values": [{"measurement": "concentration of Malondialdehyde (MDA), lipid peroxidation", "setting": "HK-2, 1 mg/ml CFH 48 h, without CFH ~3.5 μM, p<0.0001", "value": 22.5, "unit": "µM"}, {"measurement": "cleaved caspase-3 staining", "setting": "[1]", "value": "increased"}, {"measurement": "proliferation by Ki-67 staining", "setting": "[1]", "value": "not different between the groups"}, {"measurement": "LDH release", "setting": "HK-2, 1 mg/ml CFH 48 h vs control, p<0.005", "value": "higher LDH release"}, {"measurement": "viability (MTT assay)", "setting": "HK-2, 1 mg/ml CFH 48 h vs control, p=0.0001", "value": "substantial decline in viability"}]}]}
